Patent US8883153B2, “Methods for preventing and treating angioedema” (The Research for The State University of New York, priority 2009, dated 2014)

What was measured:
[1] = test system: endothelial cells; conditions: cited from earlier work
[2] = target: T1, recombinant gC1q-R (Homo sapiens, UniProt Q07021); experiment: competitive binding ELISA, biotinylated gC1q-R to coated HK peptide
T1 construct: made in house
T1 sequence (Q07021 74-282): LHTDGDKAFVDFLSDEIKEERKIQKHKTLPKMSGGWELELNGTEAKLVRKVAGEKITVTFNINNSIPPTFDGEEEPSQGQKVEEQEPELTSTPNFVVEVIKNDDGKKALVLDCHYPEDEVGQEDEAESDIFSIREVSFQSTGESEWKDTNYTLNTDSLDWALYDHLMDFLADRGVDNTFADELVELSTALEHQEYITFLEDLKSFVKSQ
Procedure: FIG. 5. Panel A: Solution phase HKH20 inhibits binding of gC1q-R to microtiter bound HKH. ELISA wells were first coated with 50 μg/ml peptide HKH20 (SEQ ID NO:11). The wells were then incubated either with biotinylated gC1q-R (5 μg/ml) alone (lane 2) or in the presence of 10 μg/ml (lane 3) or 50 μg/ml (lane 4) HKH20. […] was coated with biotinylated gC1q-R (1 μg/ml) and detected with alkaline-phosphatase conjugated NeutrAvidin. The figure is a representative of two experiments done in duplicate. […] Panel B: HKH20 and histidine-rich fragments bind to gC1q-R. Binding of gC1q-R to HKH-20 (SEQ ID NO:11), HKH-10-1 (residues 479-488; SEQ ID NO:13), HKH-10-2 (residues 484-493; SEQ ID NO:14), and HKH-10-3 (residues 489-498; SEQ ID NO:15). The negative control is binding to BSA.
As discussed earlier, gC1q-R binds HK through a site on domain 5 that is located on the light chain of HK. […] This experiment was performed by competitive binding studies in which ELISA plate wells coated with 100 μg/ml HK peptide were incubated with biotinylated gC1q-R (1 μg/ml) in the presence or absence of increasing concentrations of peptide as a solution phase competitor. […] (FIG. 5B)

[3] = target: T2, HK (Homo sapiens, UniProt P01042); experiment: solid phase ELISA, gC1q-R peptides supporting HK binding
T2 sequence (P01042 19-644): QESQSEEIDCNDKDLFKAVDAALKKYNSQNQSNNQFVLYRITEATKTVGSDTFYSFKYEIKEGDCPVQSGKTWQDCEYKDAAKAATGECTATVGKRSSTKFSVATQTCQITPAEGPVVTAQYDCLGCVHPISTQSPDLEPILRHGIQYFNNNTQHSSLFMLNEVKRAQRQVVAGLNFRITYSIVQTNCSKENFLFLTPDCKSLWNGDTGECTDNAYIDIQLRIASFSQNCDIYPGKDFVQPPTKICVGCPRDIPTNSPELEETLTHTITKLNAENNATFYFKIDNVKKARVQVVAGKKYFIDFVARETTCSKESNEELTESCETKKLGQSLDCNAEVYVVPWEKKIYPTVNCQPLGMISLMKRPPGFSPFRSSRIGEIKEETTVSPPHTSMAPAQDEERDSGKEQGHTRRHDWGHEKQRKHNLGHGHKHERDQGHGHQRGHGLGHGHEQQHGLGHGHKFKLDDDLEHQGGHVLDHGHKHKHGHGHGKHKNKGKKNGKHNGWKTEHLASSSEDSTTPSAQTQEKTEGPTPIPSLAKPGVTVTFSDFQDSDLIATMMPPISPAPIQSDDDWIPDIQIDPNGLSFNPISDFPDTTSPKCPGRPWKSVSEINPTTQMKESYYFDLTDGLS
Text: By peptide mapping and antibody inhibition studies, we have previously identified a binding site for HK in a gC1q-R domain contained within residues 204-218. […] Thus a possible binding site(s) elsewhere in the molecule was sought. Several peptides were synthesized that correspond with the gC1q-R domains of very high negative charge and, which based on their location in the crystal structure on the solution-face, are hypothesized to interact with solution-phase ligands. […] HK was bound to wells coated with peptide 190-202 and was detected by a monoclonal antibody to HK. […] These antibodies have now been isotyped to be IgG1k.

[4] = target: HUVECs; conditions: zinc-dependent; read-out: Kd of binding to HUVECs; cited from earlier work

Q: Which “inhibition of the interaction of HK with intact endothelial cells” value [1] does the source give for “HKHGHGHGKHKNKGKKNGKH (listed as Homo sapiens) [HKH20, HK 479-498, domain 5]” here?
A: inhibit

Q: And the “inhibition of gC1q-R binding to coated HK peptide by solution phase peptide” value ([2]; 50 μg/ml HKH20)?
A: totally inhibited

Q: What about the “binding of gC1q-R to the peptide” value ([2]; ELISA wells coated with peptide) of the same molecule?
A: bound strongly

Q: With “EDEVGQEDEAESD (listed as Homo sapiens) [peptide 190-202, gC1q-R 190-202]” as the molecule, how does the “capture of HK from diluted plasma on peptide-coated wells” value ([3]; plasma 1:10 in TBS, detected by monoclonal antibody to HK) read?
A: HK was bound

Q: And the “ability to support HK binding” value ([3]; solid phase ELISA)?
A: strongly supported binding of HK

B1: HK: high molecular weight kininogen, 115 kDa non-enzymatic plasma glycoprotein (protein, UniProt P01042 19-644, looked up)
Kininogen-1: T2 sequence (P01042 19-644)
Q: Which Kd [4] does the source give for B1 here?
A: 40 to 50 nM
